Measurements taken from PMC10666288, “Unveiling the Catalytic Mechanism of a Processive Metalloaminopeptidase” (Biochemistry, 2023).

Substrate: Cc1cc(=O)oc2cc(NC(=O)[C@H](N)CC(C)C)ccc12
Test: Steady-state activity assay with Leu-AMC (fluorescence)
Assay type: biochemical, Pseudomonas aeruginosa
Conditions: other: Leu-AMC varied, 3 mM MnCl2, pH 8.0, 25.0 °C
Method: A BMG Labtech POLARstar Omega plate reader was used for activity assays and kinetic studies involving amino acids conjugated to para-nitroaniline (pNA) (Sigma) or peptides as substrates. Assays were carried out at 25 °C in clear half-area 96-well plates (Greiner Bio-One). The pNA product formed upon PaPepA-mediated bond cleavage strongly absorbs at 405 nm; therefore, initial rates were measured by monitoring the increase in absorbance at 405 nm over time. For kinetic assays investigating Leu-AMC as a substrate, a SpectraMax M2E was used. Reactions were carried out using black half-area 96-well plates with clear bottoms (Greiner Bio-One). Product formation was assessed by monitoring changes in fluorescence, with the excitation wavelength set at 341 nm and emission at 441 nm. The cutoff was 420 nm. PMT gain was set to medium, with six flashes per read. PaPepA was added at a final concentration of 100 nM to start reactions. Calibration curves of pNA concentration vs absorbance and AMC vs fluorescence were constructed, and initial rate values were divided by the slope of these calibration curves to reveal the rate of product formation over time (Table S2).
For all assays excluding pH dependence curves, buffer conditions were as follows: 100 mM HEPES, 50 mM KCl, and pH 8.0. For assays carried out under pseudo-first-order conditions, one reaction component was fixed and in excess, while the other was varied. If [metal] was varied, [Leu-pNA] was fixed at 2 mM or [Leu-AMC] was fixed at 170 μM. For assays involving variation of aa-pNA or aa-AMC, MnCl2 was added to a final concentration of 3 mM. PaPepA was added at a final concentration of 100 nM in studies containing MnCl2, and to a final concentration of 1 μM in studies containing MgCl2 as the metal cofactor. Table 1 summarizes steady-state parameters described in Scheme 1 and obtained with different substrates.

B1: PaPepA (Pseudomonas aeruginosa UCBPP-PA14) (protein)
chain: MEFLVKSVRPETLKTATLVLAVGEGRKLGASAKAVDDATGGAISAVLKRGDLAGKVGQTLLLQSLPNLKAERVLLVGAGKERELGDRQYRKLASAVLSTLKGLAGADAALALGDLAVKGRGAHAKARLLVETLADGLYVFDRYKSQKAEPLKLKKLTLLADKADSAAVEQGSKEAQAIANGMALTRDLGNLPPNVCHPTFLGEQAKGLAKEFKSLKVEVLDEKKLRELGMGSFLAVAQGSDQPPRLIILQYNGAKKDQAPHVLVGKGITFDTGGISLKPGLGMDEMKFDMCGAASVFGTFRAVLELQLPINLVGLLACAENMPSGGATRPGDIVTTMSGQTVEILNTDAEGRLVLCDALTYAERFKPQSVIDIATLTGACIVALGSNTSGLMGNNEALVRQLLKAGEFADDRAWQLPLFDEYQEQLDSPFADIANIGGPKAGTITAGCFLSRFAKKYHWAHLDIAGTAWISGGKDKGATGRPVPLLTQYLLERAK
notes: GG stays after cleavage) (N); made in house; host or cells: E. coli BL21(DE3)
  Km: 16 ± 1 µM
  kcat: 0.56 ± 0.01 s⁻¹
  kcat/Km: 35400 ± 3100 M⁻¹ s⁻¹
